Assay results published in patent publication US20230332166A1, “FORMATE-INDUCIBLE PROMOTERS AND METHODS OF USE THEREOF” (Imperial College Innovations Ltd, priority 2020, published 2023).

B1: Yali0A21353: putative Y. lipolytica FDH gene; promoter region SEQ ID NO: 2 (1 Kb) and 18 (1.5 Kb) (nucleic acid, listed as Yarrowia lipolytica)
DNA: ATGAAGGTCCTTCTTATTCTCTACGATGCCGGCTCCCACGCCAAGGACGAGCCCAAGCTGCTTGGATGCACCGAGAACGAGCTTGGTATTCGAGACTGGCTCGAGTCGCAGGGCCACACTCTCGTCACCACCTCTTCCAAGGACGGTGCCGACTCTGTGCTTGACAAGGAGATTGTTGACGCTGATGTAGTCATCACCACCCCGTTCCACCCCGGCTACATCAACAAGGAGCGAATTGACAAGGCCAAGAAGCTCAAGATCTGCATCACCGCCGGTGTCGGCTCCGACCACGTGGACCTCGATGCTGCCAACGCCCGAAACATTGCCGTTCTCGAGGTCACCGGCTCGAACGTCCAGTCCGTCGCTGAGCATGTTGTCATGACCATGCTGGTGCTGGTCCGAAACTTTGTCCCTGCCCACGAGCAGATTATTTCTGGCGGCTGGGACGTTGCTGCGGTTGCCAAGGACTCTTACGATCTCGAGGGCAAGGTCATCGGTACCGTTGGAGGCGGTCGAATCGGCCAGCGAGTGCTCAAGCGATGCAAGCCCTTTGACCCCATGGAGATGCTCTACTACGACTACCAGGCTATGCCAGCTGATGTGGAGAATGAGATTGGATGCCGACGAGTCGAGTCTCTGGAGGAGATGCTCTCTCTCTGTGACGTTGTAACCATCAACTGTCCTCTCCATGCCTCCACCAAGGGTCTCTTCAACAAGGAGCTCATTTCCCACATGAAGGACGGCGCTTGGCTCGTCAACACTGCTCGAGGAGCCATCTGCGTCACCGAGGACATTGTCGACGCTCTCGAGTCCGGCAAGATCCGAGGCTACGGTGGTGACGTCTGGTTCCCCCAGCCTGCCCCCAAGGACCACCCCTGGAGAACCATGCGAAACAAGTACGGCGGTGGAAACGCCATGACTCCCCATATCTCCGGTACTTCCATCGACGCCCAGGGCCGATACGCTGAGGGTACCAAGAAGATTCTTGAGGTCTTTTTCTCTGGCAAGCAGGATTACCGCCCCCAGGACATTATCTGCATCAACGGTCACTACGGTACCAAGGCTTACGGTGACGACAAGGAGCACAAGGCCCACGTTTCCAAGTAGCTGTTTAACTTATATAAGCAATTGACTGGATTTGATAACGA
modifications: YALI0A12353g
B2: Yali0C08074: putative Y. lipolytica FDH gene; promoter region SEQ ID NO: 5 (1 Kb) and 21 (1.5 Kb) (nucleic acid, listed as Yarrowia lipolytica)
DNA: ATGAAGGTCCTTCTTGTTCTTTACGATGCTGGCTCCCATGCCAAGGATGAGCCCAAGCTGCTTGGATGCACCGAGAACGAGCTCGGTATCAGAGACTGGCTCGAGTCTCAGGGACATACCCTTGTAACTACGTCTTCCAAGGACGGTGCCGACTCTGTCCTCGACAAGGAGATTGTCGATGCCGATGTAGTCATCACCACCCCCTTTCATCCTGGATACATCAACAAGGAGCGAATCGACAAAGCCAAGAAGCTCAAGATTTGCATCACTGCTGGTGTCGGCTCTGACCACGTCGATCTCGACGCTGCCAACGCCCGAGATATTGCTGTTCTCGAAGTCACCGGCTCCAATGTCCAGTCTGTTGCCGAGCACGTTATCATGACCATGTTGGTCCTGGTGCGAAACTTTGTCCCTGCTCACGAGCAGATCATCTCTGGCGGTTGGGACGTTGCTGCTGTTGCCAAGGACTCATACGATCTCGAGGGTAAGGTCATCGGCACCGTTGGAGGAGGCCGAATTGGCCAGCGAGTGCTCAAGCGATGCAAGCCCTTCGACCCCATGGAGATGCTCTACTACGACTATCAGGCCATGCCAGCTGACGTTGAGAAGGAGATTGGATGTCGTCGAGTCGAGTCTCTCGAGGAGATGCTCTCTCTTTGTGACGTGGTCACCATCAACTGCCCTCTGCACGCTTCCACCAAGGGCCTGTTCAACAAAGAGCTCATCTCGCACATGAAGGATGGTGCCTGGCTCGTTAACACCGCTCGAGGAGCCATTTGTGTCACCGAGGACATTGTCGAGGCTCTCGAGTCCGGTAAGATCCGAGGTTACGGCGGAGACGTTTGGTTCCCCCAGCCTGCCCCTAAGGACCACCCCTGGAGAACCATGCGAAACAAGTACGGGGGAGGAAACGCCATGACTCCTCATATCTCCGGAACTTCCATCGACGCCCAGGGCCGATATGCCGAGGGCACCAAGAAGATCCTTGAGGTTTTCTTTTCTGGAAAGCAGGATTATCGACCCCAGGACATTATCTGCATCAATGGTCACTACGGCACAAAAGCTTACGGAGATGACAAGGAGCACAAGGAGCACCAGCTCAAGTAAATATATATAGCTAGAAACATATCTCGTTGTTGCTT
modifications: YALI0C08074g

Test system: Y. lipolytica JMY2900
Experiment: qPCR of putative FDH gene transcription upon induction with sodium formate
Format: cell-based, Yarrowia lipolytica
Details: YNB with 0.5% sodium formate, 6 h, 28° C., vs absence of formate; qPCR normalised to actin
Description: FIG. 3: Transcription levels of the FDH genes of Yarrowia lipolytica W29 measured by qPCR, normalised to actin (ACT1) expression. Yarrowia lipolytica was grown in YNB supplemented with 1% glucose and 0.5% yeast extract at 15 h at 28° C., before being washed and transferred into YNB with 0.5% of sodium formate for induction and grown for 6 h.
The inducibility of the putative FDH genes with formate was then tested by qPCR. YALI0E14256g1_1 and the nine putative FDH with the highest % identity to YALI0E14256g1_1 were selected for testing. Y. lipolytica JMY2900 was cultured in YNB media supplemented with 1% glucose and 0.5% yeast extract for 15 h at 28° C. Cells were washed with distilled water and cultured in fresh liquid YNB media supplemented with 0.5% sodium formate at 28° C. with agitation at 160 rpm, before being harvested at 6 h post-inoculated. Cells were frozen in liquid nitrogen and stored at −80° C. RNA was subsequently extracted using the RNeasy Mini Kit (Qiagen), and 2 μg was treated with DNAse (Ambion; Life Science Technologies, Saint-Aubain, France). cDNA was synthesised using the Maxima First Strand cDNA synthesis kit (Thermo Fischer Scientific, Villebon sur Yvette, France). qPCR was then performed using the SYBRgreen mastermix (Thermo Fischer Scientific) with gene-specific primers designed using Primer3 software. Relative expression levels were calculated using ΔCT and ΔΔCT methods. Expression levels were normalised to actin.

Row | Molecule | Fold increase on induction (fold change expression of putative FDH genes upon induction with sodium formate) [fold]
1 | B1 | 7.9
2 | B2 | 3.7
